Laboratory results: patent US7378503 (dated 2008)
Residue numbers refer to the chain shown, from its start. Each block holds one binder with its values, some of them ahead of it.

What was measured:
[1] = target: IGF-IR extracellular domain (human, UniProt P08069); assay: SPR
[2] = target: rat IGF-IR (rat, UniProt P24062); assay: other, immunoprecipitation
[3] = target: mouse IGF-IR (mouse, UniProt Q60751); assay: other, immunoprecipitation
Sequence of mouse IGF-IR (Q60751 31-936): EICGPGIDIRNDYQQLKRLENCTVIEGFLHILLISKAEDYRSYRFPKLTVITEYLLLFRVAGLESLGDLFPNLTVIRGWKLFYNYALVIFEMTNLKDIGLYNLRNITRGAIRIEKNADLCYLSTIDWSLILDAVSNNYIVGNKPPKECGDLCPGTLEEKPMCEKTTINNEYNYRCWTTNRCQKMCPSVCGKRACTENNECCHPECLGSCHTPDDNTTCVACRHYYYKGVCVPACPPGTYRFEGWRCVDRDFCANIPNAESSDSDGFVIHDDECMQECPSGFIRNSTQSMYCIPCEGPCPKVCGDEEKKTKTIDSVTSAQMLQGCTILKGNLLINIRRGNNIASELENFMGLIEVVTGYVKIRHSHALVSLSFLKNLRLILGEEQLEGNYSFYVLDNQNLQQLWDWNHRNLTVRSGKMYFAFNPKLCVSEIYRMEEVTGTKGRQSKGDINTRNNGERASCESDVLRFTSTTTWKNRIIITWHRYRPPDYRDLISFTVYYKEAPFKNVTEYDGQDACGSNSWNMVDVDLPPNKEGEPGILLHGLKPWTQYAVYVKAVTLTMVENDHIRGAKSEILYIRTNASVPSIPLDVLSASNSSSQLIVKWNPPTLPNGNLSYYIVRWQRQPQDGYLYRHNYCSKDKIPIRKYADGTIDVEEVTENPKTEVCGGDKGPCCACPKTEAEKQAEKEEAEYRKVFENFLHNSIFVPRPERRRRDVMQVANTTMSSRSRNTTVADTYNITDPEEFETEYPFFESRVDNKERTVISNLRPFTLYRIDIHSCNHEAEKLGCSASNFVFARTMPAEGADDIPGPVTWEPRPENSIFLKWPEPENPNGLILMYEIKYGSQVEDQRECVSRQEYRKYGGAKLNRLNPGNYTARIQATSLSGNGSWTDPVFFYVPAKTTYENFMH

Sequence of rat IGF-IR (P24062 31-936): as the sequence (Q60751 31-936) above, with D271G, Y629F, M714L counted along it

Kd [1]: 0.194 nM
B1: Antibody 23 (antibody, V domains shown)
VH: EVQLVQSGGGLVHPGGSLRLSCAGSGFTFSNYAMYWVRQAPGKGLEWVSAIGSGGGTYYADSVKGRFTISRDNAKNSLYLQMNSLRAEDMAVYHCARAPNWGSEAFDIWGQGTMVTVSS
VL: DIQMTQSPSSLSASVGDRVTITCRASQGISSWLAWYQQKPEKAPKSLIYAASSLQSGVPSRFSGSGSGTDFTLTISSLQPEDFATYYCQQYNSYPITFGQGTRLEIK

Kd [1]: 2.01 nM
B2: Antibody 8 (antibody, V domains shown)
VH: B1 VH with S30R, N31S, H94Y, E104D
VL: B1 VL with I96P, Q100P, R103K, L104V, E105D

binding result [2]: no binding | binding result [3]: no binding | Kd [1]: 0.397 nM
B3: Antibody 1A (antibody, V domains shown)
VH: B1 VH with S30R, H94Y, E104D
VL: B1 VL with I96P, Q100P, R103K, L104V, E105D
